Results as given in patent US10400249B2, “HPPD variants and methods of use” (priority 2014, dated 2019).

Tested on: Pseudomonas fluorescens HPPD protein
Assay: HGD assay: HPPD activity coupled to HGA dioxygenase, pI50 and type of inhibition (time-course)
Type: biochemical
Conditions: for tolerance (pI50) Cmpd. 1: inhibitor Cmpd. 1; for tolerance (pI50) Cmpd. 1 / tolerance (pI50) Cmpd. 2 / tolerance (pI50) Cmpd. 3 / tolerance (pI50) Cmpd. 4 / tolerance (pI50) Cmpd. 5 / tolerance (pI50) DKN / tolerance (pI50) MST / tolerance (pI50) TBT: HGD assay; for tolerance (pI50) Cmpd. 2: inhibitor Cmpd. 2; for tolerance (pI50) Cmpd. 3: inhibitor Cmpd. 3; for tolerance (pI50) Cmpd. 4: inhibitor Cmpd. 4; for tolerance (pI50) Cmpd. 5: inhibitor Cmpd. 5; for tolerance (pI50) DKN: inhibitor diketonitrile (DKN); for tolerance (pI50) MST: inhibitor mesotrione (MST); for tolerance (pI50) TBT: inhibitor tembotrione (TBT)
Outline: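 pI50 values for Pseudomonas fluorescens HPPD come from two room-temperature formats. The coupled HGD assay continuously follows maleylacetoacetate at 318 nm (pH 7.6 Tris, 600 μM HPP, FeSO4, ascorbate, catalase, inhibitor up to 100 μM) and classifies inhibition type from time-dependence. The endpoint OD assay measures unconsumed 0.5 mM HPP after 24 min via DNP hydrazone at 405 nm (pH 7.8), testing 5.0×10^−6–5.0×10^−4 M inhibitor.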

B1: FLP136: PfHPPD variant P215L, E335P, G336F (protein)
chain: MADLYENPMGLMGFEFIEFASPTPGTLEPIFEIMGFTKVATHRSKNVHLYRQGEINLILNNEPNSIASYFAAEHGPSVCGMAFRVKDSQKAYNRALELGAQPIHIDTGPMELNLPAIKGIGGAPLYLIDRFGEGSSIYDIDFVYLEGVERNPVGAGLKVIDHLTHNVYRGRMVYWANFYEKLFNFREARYFDIKGEYTGLTSKAMSAPDGMIRILLNEESSKGAGQIEEFLMQFNGEGIQHVAFLTDDLVKTWDALKKIGMRFMTAPPDTYYEMLEGRLPDHGEPVDQLQARGILLDGSSVEGDKRLLLQIFSETLMGPVFFEFIQRKGDDGFGPFNFKALFESIERDQVRRGVLTAD
modifications: HPPD variant - FLP136
notes: PfHPPD variant P215L, E335P, G336F
mechanism of inhibition by diketonitrile (DKN), time-course of inhibition: fully reversible inhibitors | mechanism of inhibition by mesotrione (MST), time-course of inhibition: fully reversible inhibitors | mechanism of inhibition by tembotrione (TBT), time-course of inhibition: fully reversible inhibitors | tolerance (pI50) Cmpd. 1: 5.6 | tolerance (pI50) Cmpd. 2: 5.9 | tolerance (pI50) Cmpd. 3: 5.6 | tolerance (pI50) Cmpd. 4: 6.0 | tolerance (pI50) Cmpd. 5: 5.6 | tolerance (pI50) DKN: 4.0 | tolerance (pI50) MST: 4.5 | tolerance (pI50) TBT: 5.3

B2: FLP202: PfHPPD variant P215L, E335P, G336F, A340E (protein)
chain: MADLYENPMGLMGFEFIEFASPTPGTLEPIFEIMGFTKVATHRSKNVHLYRQGEINLILNNEPNSIASYFAAEHGPSVCGMAFRVKDSQKAYNRALELGAQPIHIDTGPMELNLPAIKGIGGAPLYLIDRFGEGSSIYDIDFVYLEGVERNPVGAGLKVIDHLTHNVYRGRMVYWANFYEKLFNFREARYFDIKGEYTGLTSKAMSAPDGMIRILLNEESSKGAGQIEEFLMQFNGEGIQHVAFLTDDLVKTWDALKKIGMRFMTAPPDTYYEMLEGRLPDHGEPVDQLQARGILLDGSSVEGDKRLLLQIFSETLMGPVFFEFIQRKGDDGFGPFNFKELFESIERDQVRRGVLTAD
modifications: HPPD variant - FLP202
notes: PfHPPD variant P215L, E335P, G336F, A340E
mechanism of inhibition by diketonitrile (DKN), time-course of inhibition: fully reversible inhibitors | mechanism of inhibition by mesotrione (MST), time-course of inhibition: fully reversible inhibitors | mechanism of inhibition by tembotrione (TBT), time-course of inhibition: fully reversible inhibitors | tolerance (pI50) Cmpd. 1: 4.1 | tolerance (pI50) Cmpd. 2: 4.7 | tolerance (pI50) Cmpd. 3: 4.3 | tolerance (pI50) Cmpd. 4: 5.7 | tolerance (pI50) Cmpd. 5: 4.3 | tolerance (pI50) DKN: <4 | tolerance (pI50) MST: <4 | tolerance (pI50) TBT: 4.2
